Measurements reported in paper doi:10.1101/2020.07.31.231399.

How the values were obtained:
[1] = target: M. sp. JS623 type IV-B Csf2 (Cas7-like backbone subunit), N-terminally Strep-tagged (Mycobacterium sp. JS623); assay: cryo-EM structure
[2] = target: M. sp. JS623 type IV-B Csf4 (Cas11 small subunit) (Mycobacterium sp. JS623); assay: cryo-EM structure

“M. sp. JS623 type IV-B Csf2 (Cas7-like backbone subunit), N-terminally Strep-tagged (natural protein)” gave a stoichiometry N [1] of 7.
Work on “M. sp. JS623 type IV-B Csf4 (Cas11 small subunit) (natural protein)” yielded a stoichiometry N [2] of 5.
